Reference: IntAct's records for PubMed 25761904

B1: Dual oxidase maturation factor 2 (Homo sapiens), Q1HG44 (parent)
chain: MTLWNGVLPFYPQPRHAAGFSVPLLIVILVFLALAASFLLILPGIRGHSRWFWLVRVLLSLFIGAEIVAVHFSAEWFVGTVNTNTSYKAFSAARVTARVRLLVGLEGINITLTGTPVHQLNETIDYNEQFTWRLKENYAAEYANALEKGLPDPVLYLAEKFTPSSPCGLYHQYHLAGHYASATLWVAFCFWLLSNVLLSTPAPLYGGLALLTTGAFALFGVFALASISSVPLCPLRLGSSALTTQYGAAFWVTLATGVLCLFLGGAVVSLQYVRPSALRTLLDQSAKDCSQERGGSPLILGDPLHKQAALPDLKCITTNL
B2: Dual oxidase 2 (Homo sapiens), Q9NRD8 (parent)
chain: MLRARPEALMLLGALLTGSLGPSGNQDALSLPWEVQRYDGWFNNLRHHERGAVGCRLQRRVPANYADGVYQALEEPQLPNPRRLSNAATRGIAGLPSLHNRTVLGVFFGYHVLSDVVSVETPGCPAEFLNIRIPPGDPVFDPDQRGDVVLPFQRSRWDPETGRSPSNPRDLANQVTGWLDGSAIYGSSHSWSDALRSFSGGQLASGPDPAFPRDSQNPLLMWAAPDPATGQNGPRGLYAFGAERGNREPFLQALGLLWFRYHNLWAQRLARQHPDWEDEELFQHARKRVIATYQNIAVYEWLPSFLQKTLPEYTGYRPFLDPSISPEFVVASEQFFSTMVPPGVYMRNASCHFRKVLNKGFQSSQALRVCNNYWIRENPNLNSTQEVNELLLGMASQISELEDNIVVEDLRDYWPGPGKFSRTDYVASSIQRGRDMGLPSYSQALLAFGLDIPRNWSDLNPNVDPQVLEATAALYNQDLSQLELLLGGLLESHGDPGPLFSAIVLDQFVRLRDGDRYWFENTRNGLFSKKEIEDIRNTTLRDVLVAVINIDPSALQPNVFVWHKGAPCPQPKQLTTDGLPQCAPLTVLDFFEGSSPGFAITIIALCCLPLVSLLLSGVVAYFRGREHKKLQKKLKESVKKEAAKDGVPAMEWPGPKERSSPIIIQLLSDRCLQVLNRHLTVLRVVQLQPLQQVNLILSNNRGCRTLLLKIPKEYDLVLLFSSEEERGAFVQQLWDFCVRWALGLHVAEMSEKELFRKAVTKQQRERILEIFFRHLFAQVLDINQADAGTLPLDSSQKVREALTCELSRAEFAESLGLKPQDMFVESMFSLADKDGNGYLSFREFLDILVVFMKGSPEDKSRLMFTMYDLDENGFLSKDEFFTMMRSFIEISNNCLSKAQLAEVVESMFRESGFQDKEELTWEDFHFMLRDHDSELRFTQLCVKGGGGGGNGIRDIFKQNISCRVSFITRTPGERSHPQGLGPPAPEAPELGGPGLKKRFGKKAAVPTPRLYTEALQEKMQRGFLAQKLQQYKRFVENYRRHIVCVAIFSAICVGVFADRAYYYGFASPPSDIAQTTLVGIILSRGTAASVSFMFSYILLTMCRNLITFLRETFLNRYVPFDAAVDFHRWIAMAAVVLAILHSAGHAVNVYIFSVSPLSLLACIFPNVFVNDGSKLPQKFYWWFFQTVPGMTGVLLLLVLAIMYVFASHHFRRRSFRGFWLTHHLYILLYALLIIHGSYALIQLPTFHIYFLVPAIIYGGDKLVSLSRKKVEISVVKAELLPSGVTYLQFQRPQGFEYKSGQWVRIACLALGTTEYHPFTLTSAPHEDTLSLHIRAVGPWTTRLREIYSSPKGNGCAGYPKLYLDGPFGEGHQEWHKFEVSVLVGGGIGVTPFASILKDLVFKSSLGSQMLCKKIYFIWVTRTQRQFEWLADIIQEVEENDHQDLVSVHIYVTQLAEKFDLRTTMLYICERHFQKVLNRSLFTGLRSITHFGRPPFEPFFNSLQEVHPQVRKIGVFSCGPPGMTKNVEKACQLVNRQDRAHFMHHYENF
partner: B1 chain

Variants of: B1
Conditions: with duox2_human DUOX2, Q9NRD8

| Variant | effect of a mutation on the interaction |
| --- | --- |
| MTLWNGVLPFYPQPRHAAGFSVPLLIVILVFLALAASFLLILPGIRGHSRWFWLVRVLLSLFIGAEIVAVHFSAEWFVGTVNTNTSYKAFSAARVTARVRLLVGLEGINITLTGTPVHQLNETIDYNEQFTWRLKENYAAEYANALEKGLPDPVLYLAEKFTPSSPCGLYHQYHLAGHYASATLWVAFCFWLLSNVLLSTPAPLYGGLALLTTGAFALFGVFALASISSVPLGPLRLGSSALTTQYGAAFWVTLATGVLCLFLGGAVVSLQYVRPSALRTLLDQSAKDCSQERGGSPLILGDPLHKQAALPDLKCITTNL [C233G] | disrupting interaction strength |
| MTLWNGVLPFYPQPRHAAGFSVPLLIVILVFLALAASFLLILPGIRGHSRWFWLVRVLLSLFIGAEIVAVHFSAEWFVGTVNTNTSYKAFSAARVTARVRLLVGLEGINITLTGTPVHQLNETIDYNEQFTWRLKENYAAEYANALEKGLPDPVLYLAEKFTPSSPGGLYHQYHLAGHYASATLWVAFCFWLLSNVLLSTPAPLYGGLALLTTGAFALFGVFALASISSVPLCPLRLGSSALTTQYGAAFWVTLATGVLCLFLGGAVVSLQYVRPSALRTLLDQSAKDCSQERGGSPLILGDPLHKQAALPDLKCITTNL [C167G] | disrupting interaction strength |

Variants of: B2
Conditions: with doxa2_human DUOXA2, Q1HG44

| Variant | effect of a mutation on the interaction |
| --- | --- |
| C351G | with no effect |
| C370G | decreasing interaction strength |

Results, then the variant that gave them:

| effect of a mutation on the interaction | Variant |
| --- | --- |
| disrupting interaction strength | C582G |
| disrupting interaction strength | C568G |

Variants of: B2
Conditions: with doxa2_human DUOXA2, Q1HG44
Remark: another data set of the same source

| Variant | effect of a mutation on the interaction |
| --- | --- |
| C1162G | disrupting interaction strength |

Variants of: B2
Conditions: with doxa2_human DUOXA2, Q1HG44
Remark: another data set of the same source

| Variant | effect of a mutation on the interaction |
| --- | --- |
| C124G | disrupting interaction strength |
